Test: soluble on expression in E. coli; label from the status in PepcDB or PDB records

Sequence	soluble on expression in E. coli
MTAENIVVVAVDGSEASQNAVRWAANTANKRGVPLRLAASYTMPQFLYAEGMVPPQELFDELQSETMDMIEAARVVAHEVAPDIKIGYVIAEGSPIDMLLDMSSDVTMIVMGSRGLGGLSGMVMGSVSAAVVSHADCPVVVVRSDNHVTETNKYGPVVVGVDGSDVSQRATEFAFEEAQARGAKLVAIHTWMDMQVQASLAGLAAAQQEWEIIEKEQTTLLKDRLQPLLERFPDVEVEMVITRDRPVRALEDCAHNAQLLVVGSHGRGGFRGMLLGSTSRALLQSAPCPMVVVRPNEKEN	not soluble
SDKEYVGFAALPNQLHRKSVKKGFDFTLMVAGESGLGKSTLINSLFLTNLYEDRQVPEASARLTQTLAIERRGVEIEEGGVKVKLTLVDTPGFGDSVDCSDCWLPVVKFIEEQFEQYLRDESGLNRKNIQDSRVHCCLYFISPFGRGLRPLDVAFLRAVHEKVNIIPVIGKADALMPQETQALKQKIRDQLKEEEIHIYQFPECDSDEDEDFKRQDAEMKESIPFAVVGSCEVVRDGGNRPVRGRRYSWGTVEVENPHHCDFLNLRRMLVQTHLQDLKEVTHDLLYEGYRARCLQSLARPGARDRASRSKLSRQSATEIPLPMLPLADTEKLIREKDEELRRMQEMLEKMQAQMQQSQAQGEQSDAL	soluble
MAKQELGTKRVDPETGKKFYDLNRDPIVSPYTGISYPRSYFEVAAAEANSEEEVDTEELDTALEKSAFMLLEDDGDDPKDDDLPDLEDSDVDLGDDDDTFLSHDEDDEDDDVTDILGGGVSKDDDS	not soluble
MSLRITGPYQSFARYETALLGFLSHASGMATAALAARRAAPDSHLLSFGARHVHPSIAAVVERAALIGGFDGFSHVAAGDVLDREPGGTMPHALVICFGRGNQEAAWRAFTDGVGDDVPRIALCDTYSDEKDEVLRAVDELGDDLDAVRLDTTSSRRGDFRHIAREVQWALDAGGNSDVSVFVSGGLTPTDLRGLRDVVDGFGVGGFVSNATPVDFGLDIVEVAGEPAAKRGKLSGTKAVYRTPDGGHHVALASQPAPADATALLEPLLVDGTVSMAFDIDDAAARARQDARAVSFRQEGHHHHHH	soluble
GMATYNYPEFGAGLWHFANYIDRYAVDGYGPALSTIDQINAAKEVGELSYVDLPYPFTPGVTLSEVKDALKDAGLKAIGITPEIYLQKWSRGAFTNPDPAARAAAFELMHESAGIVRELGANYVKVWPGQDGWDYPFQVSHKNLWKLAVDGMRDLAGANPDVKFAIEYKPREPRVKMTWDSAARTLLGIEDIGLDNVGVLLDFGHALYGGESPADSAQLIIDRGRLFGMDVNDNLRGWDDDLVVGTVHMTEIFEFFYVLKINNWQGVWQLDQFPFRENHVEAAQLSIRFLKHIYRALDKLDIPALQAAQEAQNPLQAQRIVQDALLSSITVSE	soluble
MGSDKIHHHHHHGVDTKGPAGIDATELYASLDLSLLVGNSNVTTKSSELTGPTDGTEENMTKDERSVSDCYIAIFKYDSKTKNVGDFLTSYYSSNGSISESLIFKIPKDKSERTDLKIVVIANAAASVSKYGLASASQISYADLKGKTLVEVPNVFVKVGETEIAKGDGGTYPDNKGGVYVNISEKILGLDQPANTPVEVKLIQRTAAIMLQQFKILKSDGTEYDNVEIKGLSLLNSKTIGQVAGEVSSGEKLYGMQSVNGTTERLYSYENTSSSQPTTLKIDYVYNNGETGSCSFPIKSRLSEASDPKAEVWAGYLYKLTVKLTNAAVDVTVKCVTQDWVFNKDHELEFTF	not soluble
MGSDKIHHHHHHMAKILVVTDGAYGYRIKGTINSFGKKNKFIGIYKINKPDDLIVDDIEFPDELLEKIKEADILLLYTQHPDNTYYLCYEARRLNKDIAIIVATWSGEGEKKELKKFDAICPEEMCLLDENEVGSLIDKYPKLKEFLEEFGTPKVKVYVKDNKVIDVEVLRTSICGSTLFMAKLMKGMEVNDIEEFAKKSAMLIQRYPCVAGKIKIFRGDCRKQKALNIHKEAVLEGIIFI	not soluble
MAHHHHHHMLRDELPPEKGQQSFSLWSRILRSIDGCKLEIVLDDQTEADKIKVVDIYDKVSERFPLYSWKEPVKGRVVVTPTGSSYSHQGVVVELIGVASTFREVESRVVFLRQERQFEPDTLNQSTPFEFTFSAPKEHESYHGIYARVRYFVQATVKQRIKSPSVKEEVWVHRVDTALSESQTDASAHMNYFRETCFGPESIAMNVGVDNVLHIEFRYDKKIFHLAERVLGKVEYKVADMDIAYGEVGLVRKEFLAPGQTDETMESETLQKFEIMDGTPIVEEVVPIRLYLKSVPRLTPSYMDVENLFSVRYFLNLVLVNQEGKRYFKQQEIQLYRRTGQERSATSFNSGLPVTPASGDVDAKGGWSA	not soluble
MSLSDTHIPLPERLRPRDLSEIIGQDHLLGEHAPLRQMIDQGHLPSIIFWGPPGVGKTTIALLLAQAVDRPFVSLSALNTGVKELREIIAESGDLLTPVVFIDEIHRFNKSQQDALLNAVEKGKITLIGATTENPSFEVNSALLSRCQVYTLNVLDSAAIQNLIDRAIDSDSFLKQRHIHIEEYEALIQFAAGDARKALNLIDLIASTFEPDQENIVTNAVTVKVAQQNIARYDKSGEQHYDIISAFIKSIRGSDPDAALYWMARMIKGGEDPVFIARRMLIAASEDIGNSNPNALLLAGECFRSVQAVGMPEARIILGQCAVYLATSPKSNSTYLAIDRALALAEKTANLPVPLHLRNAPTKLMKQQGYGADYLYPHHYPEHFVLQEYLPPELKGTKLYEFSRNKREVEGERLQQRRWQQDQEGHHHHHH	soluble
MFIREEEQMKRMIITIGRQSGSSGRKVGELLAERLSLPLYGKAELQKIAEGTDDYEEVQAFYEEEPVNSLLYAIAMSQFEQEVGRIPFQRIRELASKESCIIIGRCAGHIFREDPEAVRVFIHADPKIRVQRIMEREGLSETKAKKFLEDTDSRRASFHKYYTKQEWGLAQDYELCLDSGVLGIEGTVEVLTEYLRFRGFLGNE	not soluble
MLERRDKEITDLKRRVANMVVVGKISHVDHKNARYRVKTGNLVSDWIPDTQARAGKTRSYEGRDVGEQVVVVSSSGDLSQGVIVGSIHTDANQAADKGNLHKTLYPDGTTIEYDDEQNSYALHLTSGGKFSLTISDGVSIKGDGKKLELQAAEGIKIISQGDLSLSAEKNIALKAGGSVSLHSDDGIALHSSEGVSIHSSDLKHNGTNIGNSHVHGGVSPGGSMTGGPN	soluble
PHANGLEQISGGDTNMFRLAKEQGYETYFYSAQAENEMAILNLIGKKWIDHLIQPTQLGYGNGDNMPDEKLLPLFDKINLQQGKHFIVLHQRGSHAPYGALLQPQDKVFGEADIVDKYDNTIHKTDQMIQTVFEQLQKQPDGNWLFAYTSDHGQYVRQDIYNQGTVQPDSYLVPLVLYSPDKAVQQAANQAFAPCEIAFHQQLSTFLIHTLGYDMPVSGCREGSVTGNLITGDAGSLNIRDGKAEYVYPQ	not soluble
MKLEASCGTATSEVPKPEKKTARDAEPSSETRPQEVEAEPRSGSGPEAEAEPLDFVVATERESEEVLAISGGIYGGLDYLPSRYHSWLRDPDRTVVLAKRNGGVIALESVNVIDAGETVLVEGLRVAPWERGKGVAGLLQRFCSQLVKRQHPGVKVARLTRDDQLGPRELKKYRLITKQGILLVRFNASALLAGLGARLAALRTSGTFSPLPTEAVSEAGGDVARLLLSPSVQRDVLPGGTIIQDWQPYRPSESNLRLLAAKGLEWRVDSRARPRVLTLCTRPFPIPHGGDGTWRYLNIDAFGSDGAQVQSQLLWHLQRQAPRLVGLNVMCQLFLEPQLWSQLADFCQVGLGLELVKGYTEQYLLEADI	soluble
SMVQSSGPMDVTSLTEELKKLAKQGWYWGPITRWEAEGKLANVPDGSFLVRDSSDDRYLLSLSFRSHGKTLHTRIEHSNGRFSFYEQPDVEGHTSIVDLIEHSIGDSENGAFCYSRSRLPGSATYPVRLTNPVSRFMQVRS	soluble
MISIIYLFIPILLASAVPTSDVLSTRIKALEQVFIVFYCKPSCRFNETQLNSVTIKSFPKCKEVCGIIFIDSETDLTVEQMKKAFEKMRTLKGGFNIENTSLTSLSVFTADKEKGNFNVVGVGNSAAAMTSTKLLAERLKQKNGVYIRNNSQLNDPSVLYDLYLYRDRGIEACDIRIENNPKLEFSCDGGFLHMYNELIVRGNLKDCGCDGEKVNVSNVKEYSKCKTLDSGLNLVNINATFDYDSFLNVTMIRGSIAIRNTNLQSLSFLQNLQTIEYNSDIASVALNVQDNPEMIRLGLPILTKVIDTVEQTSMIQYSTYNKRQYFNFENLHPDFCVTITEIVALLNLGISTENIEAKLCKDPGPLDASFYCTFESMSKLSDTCMYILGDLLIDHEDEKYVSKLGVLQFLFGTLTIRNTNLTDLNFLDQMTYIGALNGNVTYFPVIQIYSNPNLRNVGLNGIMNIITKGNRTAIIQDNHPDLFKSTPCQLFGAYFSNPAMENRVNLTYIGSNCGERVHITSSQSGRISIGLSFSLFVLFWSFKSN	not soluble
GGNSKSRNDRTETVDKEVIKAPEFDADSAYQYIQVQADFGPRVPNTQAHKECGEYLAGQLEKFGAKVYNQYADLIAYDGTILKSRNIIGAYKPESKKRILLCAHWDSRPYADNDPDPKNHHTPILGVNDGASGVGVLLEIARQIQKEQPALGIDIVFFDSEDYGIPEFYDGKYKQDTWCLGSQYWARTPHVQNYNARYGILLDMVGGKDATFYYEGYSARTARSEMKKIWKKAHELGYGKYFVKEDGGETVDDHIYVNKLARIPCVDIINYDAGNPQSSFGSFWHTVNDTMENIDRNTLKAVGQTVMDVIYNEK	soluble
MIGCLPMMRSLERHAVILGLLRQQEHVTIEAMAAACDASLQTIRRDLNQLGEDGRVVRYHGGARLADHARSATYEVRSASHVREKVAAGQLLARFIPDGATLFIAGGSTLALAAQELRACEGLTIVTNNLHAAVTLYDKTGFDVCVLGGTMRPASGSMIGEEAVRMIERYSLDFAVIGTCGISPDGALLEYDQSLVPPLLAMISNARRTVLVADGSKFGAKGIVRAAPLSAVNHFVTDRAPEGRAADLLARTGVKVHHPANPNLSSQDAAADGRELEHHHHHH	not soluble
YCEFLNNELRAHASDLLPTAPVPTMMLDRAWDEATLHNITQLIYDVRKDDALFRREISKPGAFDLMRKNYWDRREYSAVTLVGNETCNLAPLAELGFQIEVSQ	not soluble
MLKHIPKNISPDLLKTLMEMGHGDEIVLADANYPSASCANKLIRCDGVNIPELLDSILYLMPLDSYVDSSIQFMNVVSGDDIPKIWGTYRQMIEGHGTDLKTITYLRREDFYERSKKAYAIVATGETSLYANIILKKGVVVERENVQ	soluble
RQLKVGQLVLSATPLPSLDEQARSLALVNLVRRKGIELLPWNPELRQWQARVDMLRQLDIQNGQAESKWPDLSDTSLLETLEK	not soluble
GMLPRLCCLEKGPNGYGFHLHGEKGKLGQYIRLVEPGSPAEKAGLLAGDRLVEVNGENVEKETHQQVVSRIRAALNAVRLLVVDPEEDSFL	soluble
MLEHRRLFPGRRYDSRVYRSCASPMPYLLEEKLRGTAMEQRTPPSEAVISGPATPGLAEGKISAYLLDLATRTLRPPTFPPLSDSTVTAKDTVCLVGGPELAWLAVGMTPFRNITSVTLQQGELKSCSLQESMEWMRLAHLLKAAPEQVNGDGGEALALQRRLAAVRTDLVLLDLLANGHPTTGLPQVLATPFADVLDAYVDMEKEQHSAAAPSAPQNVGRLRSVLFDEEPVTGVHLEQPSLRLRLVSLQQLLVRIVRALSGAHVGLPAGNRPTPHAATLLEMTLQTHGLLCGGGVPSQAWSPTPDPADASSGGSSTAALNGTVLLDKFPRLSAEMLLQHVTYLLSNEAKQRTANAADGAGEGSDSIYLSPQRTRHFGLTGVETLLLSATQAEQVNQVLPLYVRGHTLPDEVASDITQTRNIHEAVRKTQRVLSRVLQQASQELASQSGSGTAAVDDAGHNGPHPALAHLPSHLFVRTAGARGPPPGWEYYGVHLGIKAEAMNVRYNLNASDTATLHLIDSSGSSNSGGVTATAGSEVGAESTRSGMPG	not soluble
